From the Human Domainome abundance scans (Beltran et al. 2025)
± gives the uncertainty stated by the source.

B1: Formin-binding protein 4, residues 200 to 261; numbered along this chain, Q8N3X1 (parent)
chain: SGWQYDTQCSLAGVGIEMGDWQEVWDENTGCYYYWNTQTNEVTWELPQYLATQVQGLQHYQP

Variants of: B1
Assay: abundance fitness (aPCA) (normalised: wild type 0, dead -1); higher = more abundant; growth selection in yeast, the domain comes from the species named
Conditions: Homo sapiens

Abundance fitness, by site and new letter:
L57: G -0.15 ± 0.061; F 0.02 ± 0.1; Y -0.315 ± 0.13; S -0.084 ± 0.073; N -0.212 ± 0.1; P -0.075 ± 0.086; V -0.047 ± 0.063; K 0.312 ± 0.083; D -0.043 ± 0.12; I -0.136 ± 0.12
Q53: F -0.621 ± 0.13; G -0.688 ± 0.12; R -0.215 ± 0.086; H -0.68 ± 0.17; M -0.624 ± 0.14; K -0.188 ± 0.13; S -0.765 ± 0.13; D -0.314 ± 0.16; V -0.679 ± 0.099; I -0.611 ± 0.19; C -0.738 ± 0.27; P -0.663 ± 0.15; E -0.588 ± 0.14; L -0.457 ± 0.073; T -0.606 ± 0.12; A -0.407 ± 0.11; W -0.634 ± 0.22
W44: T -0.077 ± 0.079; I -0.503 ± 0.17; H -0.236 ± 0.14; K 0.043 ± 0.088; C -0.078 ± 0.096; G -0.135 ± 0.065; P -0.218 ± 0.084; R 0.03 ± 0.054; E 0.078 ± 0.086; N 0.068 ± 0.12; A -0.221 ± 0.083; L -0.226 ± 0.062; F -0.121 ± 0.087; V -0.127 ± 0.069; S -0.037 ± 0.064; Q -0.061 ± 0.076; Y 0.089 ± 0.14; D -0.429 ± 0.15
L50: S -0.613 ± 0.094; D -1.04 ± 0.26; E -0.488 ± 0.13; N -1.06 ± 0.38; A -0.822 ± 0.12; H -0.732 ± 0.22; K -0.719 ± 0.17; I -0.214 ± 0.1; G -0.767 ± 0.096; P -0.741 ± 0.14; F -0.716 ± 0.13; M -0.52 ± 0.13; T -0.704 ± 0.16; W -0.48 ± 0.11; R -0.82 ± 0.091; Q -0.7 ± 0.13; Y -0.738 ± 0.17; C -0.45 ± 0.11
Q58: R -0.242 ± 0.066; Y -0.256 ± 0.16; A -0.019 ± 0.075; H -0.005 ± 0.14; L -0.36 ± 0.072; G -0.086 ± 0.056; P -0.209 ± 0.11; E -0.059 ± 0.088; M -0.067 ± 0.086; K 0.127 ± 0.093; C -0.293 ± 0.12; N 0.083 ± 0.14; T -0.139 ± 0.093; W -0.421 ± 0.091; F -0.195 ± 0.091
Y60: G 0.103 ± 0.058; K 0.038 ± 0.099; A 0.115 ± 0.068; M 0.177 ± 0.081; P 0.113 ± 0.09; L 0.086 ± 0.057; D 0.19 ± 0.1; H 0.092 ± 0.099; F 0.124 ± 0.087; N 0.01 ± 0.13; C 0.035 ± 0.077; W -0.068 ± 0.081; V 0.099 ± 0.057; S 0.066 ± 0.062; E 0.117 ± 0.085; R 0.112 ± 0.054; I 0.153 ± 0.092; Q 0.123 ± 0.12; T 0.101 ± 0.081
V42: W -0.457 ± 0.14; R 0.095 ± 0.067; S 0.02 ± 0.065; Y -0.453 ± 0.14
V54: Q -0.754 ± 0.16; P -0.741 ± 0.16; I 0.1 ± 0.093; S -0.603 ± 0.092; T -0.403 ± 0.11; Y -0.274 ± 0.17; E -0.741 ± 0.15; N -0.48 ± 0.19; M 0.055 ± 0.094; H -0.716 ± 0.19; R -0.625 ± 0.086; L -0.094 ± 0.066; A -0.336 ± 0.088; K -0.589 ± 0.14; G -0.546 ± 0.07; D -0.644 ± 0.16; F -0.214 ± 0.099
T43: E -0.053 ± 0.076; Y -0.332 ± 0.14; N -0.263 ± 0.17; L -0.092 ± 0.061; Q -0.018 ± 0.1; R -0.262 ± 0.068; G -0.401 ± 0.072; F -0.34 ± 0.12; M -0.317 ± 0.088; C -0.02 ± 0.096; W -0.584 ± 0.11; K -0.172 ± 0.092; S -0.021 ± 0.063; A -0.1 ± 0.076
Q55: I -0.321 ± 0.17; Y -0.389 ± 0.16; M -0.102 ± 0.085; P -0.647 ± 0.11; E -0.268 ± 0.099; R -0.12 ± 0.064; D -0.005 ± 0.19; V -0.173 ± 0.083; W 0.039 ± 0.081; L -0.184 ± 0.064; K -0.173 ± 0.087; S -0.177 ± 0.077; F -0.018 ± 0.17; H -0.482 ± 0.26; T -0.18 ± 0.092; N -0.186 ± 0.19; A -0.012 ± 0.084; C 0.121 ± 0.18
P47: Q -1.23 ± 0.33; T -1.01 ± 0.19; C -1.22 ± 0.32; D -1.17 ± 0.28; W -1.12 ± 0.2; E -0.985 ± 0.22; F -1.1 ± 0.24; Y -1.11 ± 0.27; H -1 ± 0.29; A -0.842 ± 0.15; I -1.02 ± 0.23; S -0.95 ± 0.13; R -0.895 ± 0.11; K -0.274 ± 0.17; M -0.721 ± 0.13; G -1.04 ± 0.15; V -0.583 ± 0.11
